Like-named read-outs stand apart in the source and are kept apart here.
Key:
[1] = molecular target: hERG-I583A (human) (UniProt Q12809)
[2] = molecular target: hERG-R582A (human) (UniProt Q12809)
[3] = molecular target: hERG-L586A (human) (UniProt Q12809)
[4] = molecular target: hERG-Y597A (human) (UniProt Q12809)
[5] = molecular target: hERG-N598A (human) (UniProt Q12809)
[6] = molecular target: hERG-T613A (human) (UniProt Q12809)
[7] = molecular target: human ether-a-go-go-related gene potassium channel (hERG), wild type (human) (UniProt Q12809)
[8] = molecular target: hERG-N588A (human) (UniProt Q12809)
[9] = molecular target: hERG-I583A (human) (UniProt Q12809); remark: listed apart in the source
[10] = molecular target: hERG-K608A (human) (UniProt Q12809)
[11] = molecular target: hERG-K595A (human) (UniProt Q12809)
[12] = molecular target: hERG-D591A (human) (UniProt Q12809)
[13] = molecular target: hERG-P596A (human) (UniProt Q12809)
[14] = molecular target: hERG-K610A (human) (UniProt Q12809)
[15] = molecular target: hERG-R582A (human) (UniProt Q12809); remark: listed apart in the source
[16] = molecular target: hERG-S600A (human) (UniProt Q12809)
[17] = molecular target: hERG-S631A (human) (UniProt Q12809)
[18] = molecular target: hERG-Q592A (human) (UniProt Q12809)
[19] = molecular target: hERG-H587A (human) (UniProt Q12809)
[20] = molecular target: human ether-a-go-go-related gene potassium channel (hERG), wild type (human) (UniProt Q12809); remark: listed apart in the source

With scorpion toxin BmKKx2 (peptide) the percent of mutant hERG channel currents inhibited by 100 nM BmKKx2, whole-cell patch clamp [1] was 70%, the percent of mutant hERG channel currents inhibited by 100 nM BmKKx2, whole-cell patch clamp [2] was 70% and the IC50 (half-maximum inhibition concentration) of mutant hERG channel currents, whole-cell patch clamp on transfected HEK293 cells [3] was 24.3 nM. For the same substance, the IC50 (half-maximum inhibition concentration) of mutant hERG channel currents, whole-cell patch clamp on transfected HEK293 cells [4] was 118 nM, the IC50 (half-maximum inhibition concentration) of mutant hERG channel currents, whole-cell patch clamp on transfected HEK293 cells [5] was 15.2 nM and the IC50 (half-maximum inhibition concentration) of mutant hERG channel currents, whole-cell patch clamp on transfected HEK293 cells [6] was 42.6 nM. The IC50 (half-maximum inhibition concentration) of hERG channel currents, whole-cell patch clamp on transfected HEK293 cells [7] was 6.7 nM, the IC50 (half-maximum inhibition concentration) of mutant hERG channel currents, whole-cell patch clamp on transfected HEK293 cells [8] was 14.5 nM and the IC50 (half-maximum inhibition concentration) of mutant hERG channel currents, whole-cell patch clamp on transfected HEK293 cells [9] was 87.5 nM. For the same substance, the IC50 (half-maximum inhibition concentration) of mutant hERG channel currents, whole-cell patch clamp on transfected HEK293 cells [10] was 116 nM, the IC50 (half-maximum inhibition concentration) of mutant hERG channel currents, whole-cell patch clamp on transfected HEK293 cells [11] was 65.2 nM and the IC50 (half-maximum inhibition concentration) of mutant hERG channel currents, whole-cell patch clamp on transfected HEK293 cells [12] was 19.6 nM. The IC50 (half-maximum inhibition concentration) of mutant hERG channel currents, whole-cell patch clamp on transfected HEK293 cells [13] was 60.8 nM, the IC50 (half-maximum inhibition concentration) of mutant hERG channel currents, whole-cell patch clamp on transfected HEK293 cells [14] was 6.7 nM and the IC50 (half-maximum inhibition concentration) of mutant hERG channel currents, whole-cell patch clamp on transfected HEK293 cells [15] was 76.5 nM. The IC50 (half-maximum inhibition concentration) of mutant hERG channel currents, whole-cell patch clamp on transfected HEK293 cells [16] was 12.1 nM, the IC50 (half-maximum inhibition concentration) of mutant hERG channel currents, whole-cell patch clamp on transfected HEK293 cells [17] was 698 nM and the IC50 (half-maximum inhibition concentration) of mutant hERG channel currents, whole-cell patch clamp on transfected HEK293 cells [18] was 89.5 nM. It also gave an IC50 (half-maximum inhibition concentration) of mutant hERG channel currents, whole-cell patch clamp on transfected HEK293 cells [19] of 59.7 nM and an IC50 (half-maximum inhibition concentration) of hERG channel currents, whole-cell patch clamp on transfected HEK293 cells [20] of 26.7 nM.
